Results reported in PMC10821868.
Values joined by “and” are separate entries in the source; they are usually repeats but may differ in a detail not shown here. Equal entries are not always repeated.

Legend:
[1] = molecular target: PKM2 (mouse (endogenous in ImKCs)) (UniProt P52480); assay: cross-linking; DSS crosslinking followed by Western blotting, after DPI treatment; also with the ERK1/2 inhibitor SCH772984
[2] = molecular target: PKM2 (mouse (endogenous in ImKCs)) (UniProt P52480); assay: native gel or EMSA; ImKCs treated with vehicle or DPI (50 and 500 nM) for 1 h (also 6 and 12 h); proteins extracted in Native PAGE sample buffer with 1% digitonin, run on native PAGE, anti-PKM2 Western blotting

Chain of PKM2, P52480-1 1-531 (enzyme; other documents disagree on this pair) (P52480 whole entry): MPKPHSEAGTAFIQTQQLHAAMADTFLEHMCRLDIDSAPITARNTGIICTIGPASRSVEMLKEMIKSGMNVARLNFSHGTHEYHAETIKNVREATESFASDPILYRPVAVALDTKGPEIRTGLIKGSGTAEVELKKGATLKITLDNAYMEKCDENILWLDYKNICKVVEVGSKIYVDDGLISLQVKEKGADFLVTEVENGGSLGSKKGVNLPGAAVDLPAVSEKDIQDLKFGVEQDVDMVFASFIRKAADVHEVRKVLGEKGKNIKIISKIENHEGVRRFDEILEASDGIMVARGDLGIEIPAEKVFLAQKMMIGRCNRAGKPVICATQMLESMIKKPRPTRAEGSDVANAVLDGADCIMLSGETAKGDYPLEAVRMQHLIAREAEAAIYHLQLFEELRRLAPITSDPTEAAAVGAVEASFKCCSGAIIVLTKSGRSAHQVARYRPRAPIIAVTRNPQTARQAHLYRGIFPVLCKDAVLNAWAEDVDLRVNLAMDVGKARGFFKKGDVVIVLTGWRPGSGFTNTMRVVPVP

PKM2, P52480-1 1-531 (enzyme; other documents disagree on this pair)
stoichiometry N [1]: 2 | stoichiometry N [2]: 2 and 4
